From patent US20250066503A1, “CELL INJURY INDUCING THERAPEUTIC DRUG FOR USE IN CANCER THERAPY” (CHUGAI SEIYAKU KABUSHIKI KAISHA, priority 2016, published 2025) come the findings set out here.

This test deals with T1, human GPC3 (human, UniProt P51654 25-563).
T1 construct: range 25-563; soluble analyte; also called soluble human GPC3; glypican 3
Briefly: SPR. For orientation: In SPR one partner is held on a chip, and binding of the other changes the refractive index at the surface.

T1 sequence (P51654 25-563 limits assumed): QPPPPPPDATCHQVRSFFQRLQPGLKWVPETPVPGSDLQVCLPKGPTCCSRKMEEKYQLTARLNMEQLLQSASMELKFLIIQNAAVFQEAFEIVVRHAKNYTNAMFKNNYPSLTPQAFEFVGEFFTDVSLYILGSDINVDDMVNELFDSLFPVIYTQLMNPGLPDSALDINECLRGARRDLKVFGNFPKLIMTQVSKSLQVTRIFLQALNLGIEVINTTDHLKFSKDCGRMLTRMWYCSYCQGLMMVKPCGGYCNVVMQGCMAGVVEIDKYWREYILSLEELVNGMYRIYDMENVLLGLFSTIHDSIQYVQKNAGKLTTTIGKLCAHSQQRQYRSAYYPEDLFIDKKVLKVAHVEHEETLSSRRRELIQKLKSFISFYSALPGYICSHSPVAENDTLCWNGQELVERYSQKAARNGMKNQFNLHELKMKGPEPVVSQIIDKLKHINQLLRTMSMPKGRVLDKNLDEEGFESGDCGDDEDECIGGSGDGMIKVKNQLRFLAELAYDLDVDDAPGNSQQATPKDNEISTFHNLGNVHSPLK

B1: H0610-G1dh/none-Hi-Kn010G3/L0218-k0 (antibody, V domains shown)
VH: QVQLVQSGAEVKKPGASVKVSCKASGYTFTDYEMHWIRQPPGQGLEWIGAIDGKTPDTAYSQKFKGRVTLTADKSTSTAYMELSSLTSEDTAVYYCTRFYSYTYWGQGTLVTVSS
VL: DIVMTQSPLSLPVTPGEPASISCRSSQSLVHSNRNTYLHWYQQKPGQAPRLLIYKVSNRFRGVPDRFSGSGSGTDFTLKISRVEAEDVGVYYCYQGTQVPYTFGQGTKLEIK
notes: one-arm
As usually defined, the Kd is the free concentration of one partner at which half of the binding sites on the other are occupied at equilibrium, for simple one-to-one binding. Read a low Kd as higher affinity. Regarding B1, the Kd was found to be 1.99 nM.

B2: H0610-G1dh/none-Hi-Kn010G3/L0246-k0 (antibody, V domains shown)
VH: QVQLVQSGAEVKKPGASVKVSCKASGYTFTDYEMHWIRQPPGQGLEWIGAIDGKTPDTAYSQKFKGRVTLTADKSTSTAYMELSSLTSEDTAVYYCTRFYSYTYWGQGTLVTVSS
VL: DIVMTQSPLSLPVTPGEPASISCRSSQSPVHSNRNTYIQWYQQKPGQAPRLLIYKVSNRFSGVPDRFSGSGSGTDFTLKISRVEAEDVGVYYCSQGTQVPYTFGQGTKLEIK
notes: one-arm
In turn, B2 registered a Kd of 0.00121 nM.

B3: H0610-G1dh/none-Hi-Kn010G3/L0228-k0 (antibody, V domains shown)
VH: QVQLVQSGAEVKKPGASVKVSCKASGYTFTDYEMHWIRQPPGQGLEWIGAIDGKTPDTAYSQKFKGRVTLTADKSTSTAYMELSSLTSEDTAVYYCTRFYSYTYWGQGTLVTVSS
VL: DIVMTQSPLSLPVTPGEPASISCRSSQSPVHSNRNTYIHWYQQKPGQAPRLLIYKVSNRFSGVPDRFSGSGSGTDFTLKISRVEAEDVGVYYCVQGTQVPYTFGQGTKLEIK
notes: one-arm
As for B3, the affinity, expressed as Kd, was 0.202 nM.

B4: H0610-G1dh/none-Hi-Kn010G3/L0230-k0 (antibody, V domains shown)
VH: QVQLVQSGAEVKKPGASVKVSCKASGYTFTDYEMHWIRQPPGQGLEWIGAIDGKTPDTAYSQKFKGRVTLTADKSTSTAYMELSSLTSEDTAVYYCTRFYSYTYWGQGTLVTVSS
VL: DIVMTQSPLSLPVTPGEPASISCRSSQSPVHSNRNTYIHWYQQKPGQAPRLLIYKVSNRFSGVPDRFSGSGSGTDFTLKISRVEAEDVGVYYCYQTTQVPYTFGQGTKLEIK
notes: one-arm
For the molecule B4, binding was put at a Kd of 4 nM.

B5: H0610-G1dh/none-Hi-Kn010G3/L0243-k0 (antibody, V domains shown)
VH: QVQLVQSGAEVKKPGASVKVSCKASGYTFTDYEMHWIRQPPGQGLEWIGAIDGKTPDTAYSQKFKGRVTLTADKSTSTAYMELSSLTSEDTAVYYCTRFYSYTYWGQGTLVTVSS
VL: DIVMTQSPLSLPVTPGEPASISCRSSEPPVHSNRNTYLHWYQQKPGQAPRLLIYKVSNRFRGVPDRFSGSGSGTDFTLKISRVEAEDVGVYYCGQGTQVPYTFGQGTKLEIK
notes: one-arm
B5: binding was characterised by a dissociation constant (Kd) of 0.649 nM. This Kd lies about 6.2-fold lower than the previous one.

B6: H0610-G1dh/none-Hi-Kn010G3/L0242-k0 (antibody, V domains shown)
VH: QVQLVQSGAEVKKPGASVKVSCKASGYTFTDYEMHWIRQPPGQGLEWIGAIDGKTPDTAYSQKFKGRVTLTADKSTSTAYMELSSLTSEDTAVYYCTRFYSYTYWGQGTLVTVSS
VL: DIVMTQSPLSLPVTPGEPASISCRSSESPVHSNRNTYIHWYQQKPGQAPRLLIYKVSNRFSGVPDRFSGSGSGTDFTLKISRVEAEDVGVYYCYQGTQVPYTFGQGTKLEIK
notes: one-arm
In turn, B6 had a Kd of 1.19 nM.

B7: H0610-G1dh/none-Hi-Kn010G3/L0233-k0 (antibody, V domains shown)
VH: QVQLVQSGAEVKKPGASVKVSCKASGYTFTDYEMHWIRQPPGQGLEWIGAIDGKTPDTAYSQKFKGRVTLTADKSTSTAYMELSSLTSEDTAVYYCTRFYSYTYWGQGTLVTVSS
VL: DIVMTQSPLSLPVTPGEPASISCRSSQELVHSNRNTYLHWYQQKPGQAPRLLIYKVSNRFSGVPDRFSGSGSGTDFTLKISRVEAEDVGVYYCGQGTQVPYTFGQGTKLEIK
notes: one-arm
As to B7, the affinity, expressed as Kd, was 3.55 nM. Compared with the last molecule, the Kd is about 3-fold higher.

B8: H0610-G1dh/none-Hi-Kn010G3/L0237-k0 (antibody, V domains shown)
VH: QVQLVQSGAEVKKPGASVKVSCKASGYTFTDYEMHWIRQPPGQGLEWIGAIDGKTPDTAYSQKFKGRVTLTADKSTSTAYMELSSLTSEDTAVYYCTRFYSYTYWGQGTLVTVSS
VL: DIVMTQSPLSLPVTPGEPASISCRSSQEPVHSNRNTYIHWYQQKPGQAPRLLIYKVSNRFSGVPDRFSGSGSGTDFTLKISRVEAEDVGVYYCYQGTQVPYTFGQGTKLEIK
notes: one-arm
Turning to B8, the Kd is 1.31 nM.

B9: H0610-G1dh/none-Hi-Kn010G3/L0219-k0 (antibody, V domains shown)
VH: QVQLVQSGAEVKKPGASVKVSCKASGYTFTDYEMHWIRQPPGQGLEWIGAIDGKTPDTAYSQKFKGRVTLTADKSTSTAYMELSSLTSEDTAVYYCTRFYSYTYWGQGTLVTVSS
VL: DIVMTQSPLSLPVTPGEPASISCRSSQSLVHSNRNTYIHWYQQKPGQAPRLLIYKVSNRFRGVPDRFSGSGSGTDFTLKISRVEAEDVGVYYCGQGTQVPYTFGQGTKLEIK
notes: one-arm
On to B9, for which binding was put at a Kd of 2.28 nM.

B10: H0610-G1dh/none-Hi-Kn010G3/L0240-k0 (antibody, V domains shown)
VH: QVQLVQSGAEVKKPGASVKVSCKASGYTFTDYEMHWIRQPPGQGLEWIGAIDGKTPDTAYSQKFKGRVTLTADKSTSTAYMELSSLTSEDTAVYYCTRFYSYTYWGQGTLVTVSS
VL: DIVMTQSPLSLPVTPGEPASISCRSSESPVHSNRNTYLHWYQQKPGQAPRLLIYKVSNRFSGVPDRFSGSGSGTDFTLKISRVEAEDVGVYYCYQGTQVPYTFGQGTKLEIK
notes: one-arm
For the molecule B10, the dissociation constant (Kd) is 0.848 nM.

B11: H0610-G1dh/none-Hi-Kn010G3/L0220-k0 (antibody, V domains shown)
VH: QVQLVQSGAEVKKPGASVKVSCKASGYTFTDYEMHWIRQPPGQGLEWIGAIDGKTPDTAYSQKFKGRVTLTADKSTSTAYMELSSLTSEDTAVYYCTRFYSYTYWGQGTLVTVSS
VL: DIVMTQSPLSLPVTPGEPASISCRSSQPLVHSNRNTYLHWYQQKPGQAPRLLIYKVSNRFRGVPDRFSGSGSGTDFTLKISRVEAEDVGVYYCYQGTQVPYTFGQGTKLEIK
notes: one-arm
B11: binding was characterised by a dissociation constant (Kd) of 1.36 nM.

B12: H0610-G1dh/none-Hi-Kn010G3/L0238-k0 (antibody, V domains shown)
VH: QVQLVQSGAEVKKPGASVKVSCKASGYTFTDYEMHWIRQPPGQGLEWIGAIDGKTPDTAYSQKFKGRVTLTADKSTSTAYMELSSLTSEDTAVYYCTRFYSYTYWGQGTLVTVSS
VL: DIVMTQSPLSLPVTPGEPASISCRSSEPPVHSNRNTYLHWYQQKPGQAPRLLIYKVSNRFSGVPDRFSGSGSGTDFTLKISRVEAEDVGVYYCYQGTQVPYTFGQGTKLEIK
notes: one-arm
With B12, binding was put at a Kd of 0.637 nM.

B13: H0610-G1dh/none-Hi-Kn010G3/L0239-k0 (antibody, V domains shown)
VH: QVQLVQSGAEVKKPGASVKVSCKASGYTFTDYEMHWIRQPPGQGLEWIGAIDGKTPDTAYSQKFKGRVTLTADKSTSTAYMELSSLTSEDTAVYYCTRFYSYTYWGQGTLVTVSS
VL: DIVMTQSPLSLPVTPGEPASISCRSSESPVHSNRNTYLHWYQQKPGQAPRLLIYKVSNRFRGVPDRFSGSGSGTDFTLKISRVEAEDVGVYYCGQGTQVPYTFGQGTKLEIK
notes: one-arm
With B13, binding was characterised by a dissociation constant (Kd) of 0.874 nM.

B14: H0610-G1dh/none-Hi-Kn010G3/L0226-k0 (antibody, V domains shown)
VH: QVQLVQSGAEVKKPGASVKVSCKASGYTFTDYEMHWIRQPPGQGLEWIGAIDGKTPDTAYSQKFKGRVTLTADKSTSTAYMELSSLTSEDTAVYYCTRFYSYTYWGQGTLVTVSS
VL: DIVMTQSPLSLPVTPGEPASISCRSSQSPVHSNRNTYIHWYQQKPGQAPRLLIYKVSNRFSGVPDRFSGSGSGTDFTLKISRVEAEDVGVYYCIQGTQVPYTFGQGTKLEIK
notes: one-arm
Turning to B14, the Kd was 0.093 nM.

B15: H0610-G1dh/none-Hi-Kn010G3/L0229-k0 (antibody, V domains shown)
VH: QVQLVQSGAEVKKPGASVKVSCKASGYTFTDYEMHWIRQPPGQGLEWIGAIDGKTPDTAYSQKFKGRVTLTADKSTSTAYMELSSLTSEDTAVYYCTRFYSYTYWGQGTLVTVSS
VL: DIVMTQSPLSLPVTPGEPASISCRSSQSPVHSNRNTYIHWYQQKPGQAPRLLIYKVSNRFSGVPDRFSGSGSGTDFTLKISRVEAEDVGVYYCYQSTQVPYTFGQGTKLEIK
notes: one-arm
B15: the dissociation constant (Kd) was determined as 1.2 nM.

B16: H0610-G1dh/none-Hi-Kn010G3/L0223-k0 (antibody, V domains shown)
VH: QVQLVQSGAEVKKPGASVKVSCKASGYTFTDYEMHWIRQPPGQGLEWIGAIDGKTPDTAYSQKFKGRVTLTADKSTSTAYMELSSLTSEDTAVYYCTRFYSYTYWGQGTLVTVSS
VL: DIVMTQSPLSLPVTPGEPASISCRSSQSPVHSNRNTYIHWYQQKPGQAPRLLIYKVSNRLSGVPDRFSGSGSGTDFTLKISRVEAEDVGVYYCYQGTQVPYTFGQGTKLEIK
notes: one-arm
Regarding B16, binding was characterised by a dissociation constant (Kd) of 0.475 nM.

B17: H0610-G1dh/none-Hi-Kn010G3/L0231-k0 (antibody, V domains shown)
VH: QVQLVQSGAEVKKPGASVKVSCKASGYTFTDYEMHWIRQPPGQGLEWIGAIDGKTPDTAYSQKFKGRVTLTADKSTSTAYMELSSLTSEDTAVYYCTRFYSYTYWGQGTLVTVSS
VL: DIVMTQSPLSLPVTPGEPASISCRSSQSPVHSNRNTYIHWYQQKPGQAPRLLIYKVSNRFSGVPDRFSGSGSGTDFTLKISRVEAEDVGVYYCYQGTQWPYTFGQGTKLEIK
notes: one-arm
B17 yielded a Kd of 0.589 nM.

B18: H0610-G1dh/none-Hi-Kn010G3/L0227-k0 (antibody, V domains shown)
VH: QVQLVQSGAEVKKPGASVKVSCKASGYTFTDYEMHWIRQPPGQGLEWIGAIDGKTPDTAYSQKFKGRVTLTADKSTSTAYMELSSLTSEDTAVYYCTRFYSYTYWGQGTLVTVSS
VL: DIVMTQSPLSLPVTPGEPASISCRSSQSPVHSNRNTYIHWYQQKPGQAPRLLIYKVSNRFSGVPDRFSGSGSGTDFTLKISRVEAEDVGVYYCLQGTQVPYTFGQGTKLEIK
notes: one-arm
B18 came in with a Kd of 0.408 nM. The Kd values of the last two molecules are within 1.5-fold of each other.

B19: H0610-G1dh/none-Hi-Kn010G3/L0224-k0 (antibody, V domains shown)
VH: QVQLVQSGAEVKKPGASVKVSCKASGYTFTDYEMHWIRQPPGQGLEWIGAIDGKTPDTAYSQKFKGRVTLTADKSTSTAYMELSSLTSEDTAVYYCTRFYSYTYWGQGTLVTVSS
VL: DIVMTQSPLSLPVTPGEPASISCRSSQSPVHSNRNTYIHWYQQKPGQAPRLLIYKVSNRFPGVPDRFSGSGSGTDFTLKISRVEAEDVGVYYCYQGTQVPYTFGQGTKLEIK
notes: one-arm
The molecule B19 had an equilibrium dissociation constant (Kd) of 0.243 nM.

B20: H0610-G1dh/none-Hi-Kn010G3/L0234-k0 (antibody, V domains shown)
VH: QVQLVQSGAEVKKPGASVKVSCKASGYTFTDYEMHWIRQPPGQGLEWIGAIDGKTPDTAYSQKFKGRVTLTADKSTSTAYMELSSLTSEDTAVYYCTRFYSYTYWGQGTLVTVSS
VL: DIVMTQSPLSLPVTPGEPASISCRSSQEPVHSNRNTYLHWYQQKPGQAPRLLIYKVSNRFRGVPDRFSGSGSGTDFTLKISRVEAEDVGVYYCGQGTQVPYTFGQGTKLEIK
notes: one-arm
B20 had a Kd of 0.778 nM. This Kd is about 3.2-fold higher than that of the molecule before.

B21: H0610-G1dh/none-Hi-Kn010G3/L0232-k0 (antibody, V domains shown)
VH: QVQLVQSGAEVKKPGASVKVSCKASGYTFTDYEMHWIRQPPGQGLEWIGAIDGKTPDTAYSQKFKGRVTLTADKSTSTAYMELSSLTSEDTAVYYCTRFYSYTYWGQGTLVTVSS
VL: DIVMTQSPLSLPVTPGEPASISCRSSESLVHSNRNTYLHWYQQKPGQAPRLLIYKVSNRFSGVPDRFSGSGSGTDFTLKISRVEAEDVGVYYCGQGTQVPYTFGQGTKLEIK
notes: one-arm
The molecule B21 returned a dissociation constant Kd of 5.38 nM.
